These results are taken from PMC7688234, “Salt Stress Response of Sulfolobus acidocaldarius Involves Complex Trehalose Metabolism Utilizing a Novel Trehalose-6-Phosphate Synthase (TPS)/Trehalose-6-Phosphate Phosphatase (TPP) Pathway” (Applied and Environmental Microbiology, 2020).

Substrate in data set [1]: Nc1ncnc2c1ncn2[C@@H]1O[C@H](COP(=O)(O)OP(=O)(O)O[C@H]2O[C@H](CO)[C@@H](O)[C@H](O)[C@H]2O)[C@@H](O)[C@H]1O
The data set can be described thus: purified protein. It is filed as biochemical, Sulfolobus acidocaldarius. The note with it: glycosyl donor, G6P as acceptor (standard 10 mM), 10 mM MgCl2, 50 mM HEPES-KOH pH 7, 55°C.

Substrate in data set [2]: O=c1ccn([C@@H]2O[C@H](CO[P@@](=O)(O)O[P@@](=O)(O)O[C@H]3O[C@H](CO)[C@@H](O)[C@H](O)[C@H]3O)[C@@H](O)[C@H]2O)c(=O)[nH]1
The data set can be described thus: purified protein. The note with it: glycosyl donor, G6P as acceptor (standard 10 mM), 10 mM MgCl2, 50 mM HEPES-KOH pH 7, 55°C. Type of data set: biochemical, Sulfolobus acidocaldarius.

Data set [3] deals with the molecule itself. The data set can be described thus: SEC; gel filtration under native conditions against SDS-PAGE under denaturing conditions; Superdex 200 HiLoad 26/60, 30 mM Tris-300 mM NaCl, pH 7. In general terms: In gel filtration, larger molecules generally elute earlier.

B1: trehalose-6-phosphate synthase (TPS, Saci_1249) of Sulfolobus acidocaldarius (enzyme, UniProt Q4J9D6 1-444, looked up)
chain: MFSVSISTQTPPVRFRYTYRDLMDKYGFFELPIELSQLDSSDYYFSVGGVPKMMLSLINKFNKVRWVSLGPGYPPQVKYGDQRLFDFIDLDPENLKNYTRYKEGIYNESHGIEKYEIKPSEYISYADYNWISAKKLLEFHNDSDVYFINDFQLLLVGGIIGPSAPAILWYHIPFVPENLSPRIRDFIVRSFEGYDYVILSTKRDLEGLLRIGAKINARQVYPFIDTSTLRRGSKGEVDKVKSKYNIGKDEKVITVVARMDPMKSQDVAIMALKKIKESNAKLLLVGNGSFTSGALGTNKAGNWVRKLQSLASNLGVDKKVVFTGHVSDEELNAIYEASDVIVLPSRIEGFGLVVCEGWFFEKPAIVSSGAGVSELVIDGSNGFVFKSGNYEELAEKIDIVLKEPDKYSRLSRDTVNKCNVEYAFNQLKDIFAQAMKDYGKNVNL
notes: Trehalose-6-phosphate synthase TPS (Saci_1249), Sulfolobus acidocaldarius; gene of 1,335 bp encoding 444 amino acids, calculated mass 50.3 kDa; amplified from genomic DNA with primers that run from the start codon to the stop codon, cloned into pET15b; The N-terminal His tag comes from pET15b; also called GT4-like TPS; source: E. coli BL21(DE3)-CodonPlus, purified …
In the case of B1, the Michaelis-Menten constant (Km) (usually the substrate concentration at which the rate is half of its maximum) in data set [1] turned out to be 1800 µM. Moreover, in data set [2], the Km came to 3800 µM; the kcat (as a rule, the number of substrate molecules converted per active site and unit of time at saturation) is 4.9 s⁻¹. Also, in data set [3], the stoichiometry N (usually a count of units in the complex or per binding partner) is 2.
